Laboratory results reported in PMC5639329.

Assay: AUC

Row | Substance | % aggregates (20-1000 S area) [%] | % monomer (1-20 S area) [%] | % aggregates (20-1000 S area), Hsp70 co-expressed [%] | % aggregates (20-1000 S area), average of all runs [%] | % monomer (1-20 S area), Hsp70 co-expressed [%] | % monomer (1-20 S area), average of all runs [%]
1 | GFP-HttQ28 (huntingtin exon 1 fragment with 28 glutamines fused to GFP, expressed in C. elegans) | 70 | 30 |  |  |  | 
2 | GFP-HttQ74 (huntingtin exon 1 fragment with 74 glutamines fused to GFP, expressed in C. elegans) | 97 | 3 |  |  |  | 
3 | HttQ25-eGFP (huntingtin exon 1 fragment with 25 glutamines fused to eGFP, expressed in D. melanogaster) | 66 | 34 | 62 | 64.7 | 38 | 35.3
4 | HttQ46-eGFP (huntingtin exon 1 fragment with 46 glutamines fused to eGFP, expressed in D. melanogaster) | 76 | 24 | 78 | 83.2 | 22 | 16.8
5 | HttQ72-eGFP (huntingtin exon 1 fragment with 72 glutamines fused to eGFP, expressed in D. melanogaster) | 93 | 7 |  | 93.3 |  | 6.7
6 | HttQ97-eGFP (huntingtin exon 1 fragment with 97 glutamines fused to eGFP, expressed in D. melanogaster) | 82 | 18 | 91 | 85.6 | 9 | 14.7

Assay: AUC
Remark: another data set of the same source

Row | Substance | % aggregates (20-1000 S area) [%] | % monomer (1-20 S area) [%]
7 | HttQ25-eGFP (huntingtin exon 1 fragment with 25 glutamines fused to eGFP, expressed in D. melanogaster) | 65 | 35
8 | HttQ46-eGFP (huntingtin exon 1 fragment with 46 glutamines fused to eGFP, expressed in D. melanogaster) | 79 | 21
9 | HttQ72-eGFP (huntingtin exon 1 fragment with 72 glutamines fused to eGFP, expressed in D. melanogaster) | 90 | 10
10 | HttQ97-eGFP (huntingtin exon 1 fragment with 97 glutamines fused to eGFP, expressed in D. melanogaster) | 86 | 14
